This note sets out measurements from patent US20080241109A1.

The target in the assay is Fas receptor (human) (UniProt P25445). The experiment in a line: cell-based or functional assay.
Sequence of UniProt P25445 (P25445 26-335): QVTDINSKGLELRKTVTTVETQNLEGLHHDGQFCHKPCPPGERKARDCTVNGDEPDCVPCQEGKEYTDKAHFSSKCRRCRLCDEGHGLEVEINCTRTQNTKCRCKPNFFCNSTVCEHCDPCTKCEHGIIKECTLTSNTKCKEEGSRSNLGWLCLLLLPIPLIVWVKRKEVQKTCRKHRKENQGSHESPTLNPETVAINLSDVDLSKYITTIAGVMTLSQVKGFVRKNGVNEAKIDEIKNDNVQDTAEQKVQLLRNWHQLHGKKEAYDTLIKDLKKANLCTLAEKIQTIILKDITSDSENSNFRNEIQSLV

Turning to CH11 (antibody), the IC50 (ng/ml), PESMTS survival assay, ARH-77 cells (multiple myeloma) was > 10000 ng/mL; the IC50 (ng/ml), PESMTS survival assay, DOHH2 cells (follicular lymphoma) is > 10000 ng/mL; the IC50 (ng/ml), PESMTS survival assay, HL60 (AML-M3) cells is > 10000 ng/mL; the IC50 (ng/ml), PESMTS survival assay, Jurkat cells (acute T lymphoblastic leukemia) was determined as 6.58 ng/mL. Besides, the IC50 (ng/ml), PESMTS survival assay, K562 cells (chronic myeloid leukaemia) is > 10000 ng/mL; the IC50 (ng/ml), PESMTS survival assay, NB4 (AML-M3) cells is > 10000 ng/mL; the IC50 (ng/ml), PESMTS survival assay, Namalwa (ALL-L3) cells was > 10000 ng/mL; the IC50 (ng/ml), PESMTS survival assay, RPMI-8226 cells (multiple myeloma) is > 10000 ng/mL. Also, the IC50 (ng/ml), PESMTS survival assay, Raji (ALL-L3) cells was found to be 15.8 ng/mL; the IC50 (ng/ml), PESMTS survival assay, SC-I cells (follicular lymphoma) is > 10000 ng/mL; the IC50 (ng/ml), PESMTS survival assay, U266 cells (multiple myeloma) was > 10000 ng/mL.

“MegaFasL (fusion polypeptide m or hACRP30:hFasL) (from UniProt P48023 103-281) (ligand)”: the IC50 (ng/ml), PESMTS survival assay, ARH-77 cells (multiple myeloma) was determined as 10.4 ng/mL; the IC50 (ng/ml), PESMTS survival assay, DOHH2 cells (follicular lymphoma) amounted to 1.17 ng/mL; the IC50 (ng/ml), PESMTS survival assay, HL60 (AML-M3) cells was determined as 213 ng/mL; the IC50 (ng/ml), PESMTS survival assay, Jurkat cells (acute T lymphoblastic leukemia) worked out at 0.06 ng/mL. Moreover, the IC50 (ng/ml), PESMTS survival assay, K562 cells (chronic myeloid leukaemia) is > 10000 ng/mL; the IC50 (ng/ml), PESMTS survival assay, NB4 (AML-M3) cells was 16 ng/mL; the IC50 (ng/ml), PESMTS survival assay, Namalwa (ALL-L3) cells came out at 57 ng/mL; the IC50 (ng/ml), PESMTS survival assay, OPM2 cells (multiple myeloma) amounted to 2.19 ng/mL. Besides, the IC50 (ng/ml), PESMTS survival assay, RPMI-8226 cells (multiple myeloma) was determined as 3.57 ng/mL; the IC50 (ng/ml), PESMTS survival assay, Raji (ALL-L3) cells is 5.6 ng/mL; the IC50 (ng/ml), PESMTS survival assay, SC-I cells (follicular lymphoma) is > 10000 ng/mL; the IC50 (ng/ml), PESMTS survival assay, U266 cells (multiple myeloma) was found to be 6.2 ng/mL.
